Each sequence was assayed on Escherichia coli TOP10 (assay: shrunken log2 fold change of peptide-encoding DNA abundance (4.5 h post-induction vs induction); higher = less antimicrobial activity (less host growth inhibition)). Settings: time post-induction: 4.5 h; library: site-saturation at positions 5, 18, 19, 20.
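Also: peptides expressed intracellularly from a pBAD plasmid library in pooled LB shake-flask culture, induced with 0.3% L-arabinose, DNA abundance read by NGS, three biological replicates, DESeq2 with apeglm shrinkage.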

| Sequence | shrunken log2 fold change |
| --- | --- |
| RRIRYRPPRLPRPRPRPCNYPRP | -0.87 |
| RRIRVRPPRLPRPRPRPAEQPRP | 0.247 |
| RRIRIRPPRLPRPRPRPNNGPRP | -0.589 |
| RRIRWRPPRLPRPRPRPVHFPRP | -0.0407 |
| RRIRDRPPRLPRPRPRPCHFPRP | -0.105 |
| RRIRKRPPRLPRPRPRPPPDPRP | 0.906 |
| RRIRIRPPRLPRPRPRPHDCPRP | -0.123 |
| RRIRARPPRLPRPRPRPTSFPRP | 0.237 |
| RRIRCRPPRLPRPRPRPYTLPRP | -1.07 |
| RRIRDRPPRLPRPRPRPDWLPRP | 0.34 |
| RRIRLRPPRLPRPRPRPMCMPRP | -0.451 |
| RRIRARPPRLPRPRPRPHQTPRP | -0.103 |
| RRIRNRPPRLPRPRPRPKRKPRP | 0.226 |
| RRIRGRPPRLPRPRPRPQTYPRP | 0.0285 |
| RRIRHRPPRLPRPRPRPYNYPRP | -0.00747 |
| RRIRRRPPRLPRPRPRPFPMPRP | 0.0657 |
| RRIRTRPPRLPRPRPRPGHEPRP | 0.0552 |
| RRIRKRPPRLPRPRPRPAIAPRP | 0.802 |
| RRIRKRPPRLPRPRPRPSTLPRP | 0.252 |
| RRIRVRPPRLPRPRPRPCQSPRP | 0.0215 |
| RRIRPRPPRLPRPRPRPNSLPRP | -0.272 |
| RRIRDRPPRLPRPRPRPWKRPRP | -0.0239 |
| RRIRHRPPRLPRPRPRPCSEPRP | 0.0248 |
| RRIRDRPPRLPRPRPRPAYLPRP | -0.011 |
| RRIRWRPPRLPRPRPRPPYMPRP | -0.16 |

| Sequence | shrunken log2 fold change |
| --- | --- |
| RRIRARPPRLPRPRPRPIYIPRP | 2.43 |
| RRIRIRPPRLPRPRPRPACRPRP | 0.225 |
| RRIRNRPPRLPRPRPRPGMVPRP | -0.23 |
| RRIRYRPPRLPRPRPRPEITPRP | -0.295 |
| RRIRVRPPRLPRPRPRPEHVPRP | 0.0447 |
| RRIRFRPPRLPRPRPRPRSVPRP | -0.00149 |
| RRIRNRPPRLPRPRPRPLHVPRP | 0.251 |
| RRIRPRPPRLPRPRPRPELPPRP | 0.175 |
| RRIRARPPRLPRPRPRPGQTPRP | 0.178 |
| RRIRPRPPRLPRPRPRPWELPRP | 0.0728 |
| RRIRVRPPRLPRPRPRPCNRPRP | -0.0287 |
| RRIRTRPPRLPRPRPRPLMNPRP | -0.852 |
| RRIRYRPPRLPRPRPRPEEYPRP | -0.255 |
| RRIRVRPPRLPRPRPRPYLVPRP | -0.511 |
| RRIRTRPPRLPRPRPRPSEMPRP | -0.00622 |
| RRIRHRPPRLPRPRPRPNYLPRP | -0.114 |
| RRIRCRPPRLPRPRPRPYFSPRP | -0.135 |
| RRIRFRPPRLPRPRPRPWQKPRP | -0.097 |
| RRIRKRPPRLPRPRPRPEDRPRP | 0.206 |
| RRIRKRPPRLPRPRPRPLASPRP | 0.0708 |
| RRIRERPPRLPRPRPRPLRAPRP | 0.348 |
| RRIRTRPPRLPRPRPRPPAYPRP | -0.0816 |
| RRIRQRPPRLPRPRPRPYGLPRP | -0.048 |
| RRIRWRPPRLPRPRPRPGIKPRP | -0.168 |
| RRIRRRPPRLPRPRPRPVEFPRP | 0.0107 |

| Sequence | shrunken log2 fold change |
| --- | --- |
| RRIRTRPPRLPRPRPRPRDDPRP | 0.107 |
| RRIRWRPPRLPRPRPRPKYEPRP | -0.0182 |
| RRIRQRPPRLPRPRPRPCQCPRP | -0.034 |
| RRIRRRPPRLPRPRPRPMRFPRP | 1.1 |
| RRIRKRPPRLPRPRPRPGKEPRP | 0.266 |
| RRIRSRPPRLPRPRPRPMMQPRP | -0.241 |
| RRIRGRPPRLPRPRPRPSHFPRP | -0.621 |
| RRIRARPPRLPRPRPRPVIPPRP | -0.296 |
| RRIRRRPPRLPRPRPRPGEDPRP | 0.00579 |
| RRIRFRPPRLPRPRPRPKRAPRP | 0.244 |
| RRIRLRPPRLPRPRPRPQSVPRP | -0.325 |
| RRIRVRPPRLPRPRPRPPNHPRP | -0.0404 |
| RRIRDRPPRLPRPRPRPRKAPRP | -0.0143 |
| RRIRQRPPRLPRPRPRPTNYPRP | -0.248 |
| RRIRWRPPRLPRPRPRPFGHPRP | -0.102 |
| RRIRPRPPRLPRPRPRPSWRPRP | -0.0524 |
| RRIRYRPPRLPRPRPRPSKWPRP | -0.155 |
| RRIRMRPPRLPRPRPRPDRQPRP | 0.239 |
| RRIRTRPPRLPRPRPRPNKIPRP | -0.799 |
| RRIRWRPPRLPRPRPRPTRAPRP | 0.909 |
| RRIRGRPPRLPRPRPRPSGYPRP | -0.167 |
| RRIRNRPPRLPRPRPRPQEYPRP | -0.578 |
| RRIRMRPPRLPRPRPRPDVLPRP | -0.123 |
| RRIRFRPPRLPRPRPRPPDKPRP | 0.151 |
| RRIRARPPRLPRPRPRPTPCPRP | 0.323 |
